Results from PMC2998434, “Domain Swapping in Allosteric Modulation of DNA Specificity” (PLoS Biology, 2010).
Substitutions are numbered along the chain they refer to.

Key:
SgrAI P27G = biological target: T1, SgrAI P27G (UniProt Q9F6L0 1-339, P27G); assay: fluorescence polarization anisotropy; 10 mM Ca2+; FPA: 20 mM Tris-OAc pH 8.0, 50 mM KOAc, 10 mM Ca(OAc)2, 1 mM DTT, 10% glycerol, 4 C, 1 nM DNA; native PAGE: same binding buffer, 1 uM SgrAI, 30 min at 4 C, gel; conditions: protein: recombinant, chain copies: 2
T1 sequence: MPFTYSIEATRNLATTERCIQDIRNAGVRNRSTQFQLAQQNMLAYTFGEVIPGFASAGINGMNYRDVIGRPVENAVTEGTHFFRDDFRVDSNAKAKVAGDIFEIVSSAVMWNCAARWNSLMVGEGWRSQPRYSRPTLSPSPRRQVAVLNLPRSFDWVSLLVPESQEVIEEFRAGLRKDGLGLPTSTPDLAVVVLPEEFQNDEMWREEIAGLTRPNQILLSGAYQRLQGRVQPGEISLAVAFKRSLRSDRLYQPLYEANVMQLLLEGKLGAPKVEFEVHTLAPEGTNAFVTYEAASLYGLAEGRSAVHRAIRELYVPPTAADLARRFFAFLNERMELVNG

SgrAI P27W = biological target: T2, SgrAI P27W (UniProt Q9F6L0 1-339, P27W); assay: as above; conditions: protein: recombinant, chain copies: 2
T2 sequence: T1 sequence with G27W

SgrAI wild type = biological target: T3, SgrAI wild type (UniProt Q9F6L0 1-339); assay: X-ray crystal structure, 2.03 A; 50 mM CaCl2; two Ca2+ per active site; domain-swapped tetramer with two duplexes; FPA: 20 mM Tris-OAc pH 8.0, 50 mM KOAc, 10 mM Ca(OAc)2, 1 mM DTT, 10% glycerol, 4 C, 1 nM DNA; native PAGE: same binding buffer, 1 uM SgrAI, 30 min at 4 C, gel; conditions: protein: recombinant; chain copies: 2; 5' overhang 1 nt (A) at each end; self-complementary, 2 strand copies
T3 sequence: T1 sequence with G27P

[1] = biological target: the molecule itself; assay: crystal structure; SgrAI with self-complementary 17-mer cognate DNA (1:2 SgrAI dimer:DNA duplex) and Ca2+; 14% PEG 4K, 0.1 M imidazole pH 6.5, 0.15 M NaCl, 0.05 M CaCl2, 17°C; two DNA bound dimers form a domain swapped tetramer (N counts subunits)
[2] = label: 5' FLO on top strand only
[3] = label: 5' HEX on both strands (FPA), 5' 32P (native gel), blunt, self-complementary, 2 strand copies

B1: PCP (precleaved primary site DNA) (dsDNA)
DNA 1: GATGCGTGGGTCTTCACA
DNA 2: CCGGTGTGAAGACCCACGCATC
modifications: 5' phosphate at the cleavage site
Kd (SgrAI P27G; [2]): 5 ± 2 nM
Kd (SgrAI P27W; [2]): 9 ± 2 nM

B2: 17-2 cognate (crystal DNA) (dsDNA)
DNA 1: AAGTCCACCGGTGGACT
DNA 2: AAGTCCACCGGTGGACT
binding result (SgrAI wild type): binds

B3: 18-1 (primary site) (dsDNA)
DNA 1: AAGTCCACCGGTGGACTT
DNA 2: AAGTCCACCGGTGGACTT
Kd (SgrAI P27G; [3]): 17 ± 5 nM
Kd (SgrAI P27W; [3]): 4 ± 0.8 nM

B4: SgrAI restriction endonuclease, wild type (enzyme, Streptomyces griseus)
chain: PFTYSIEATRNLATTERCIQDIRNAPVRNRSTQFQLAQQNMLAYTFGEVIPGFASAGINGMNYRDVIGRPVENAVTEGTHFFRDDFRVDSNAKAKVAGDIFEIVSSAVMWNCAARWNSLMVGEGWRSQPRYSRPTLSPSPRRQVAVLNLPRSFDWVSLLVPESQEVIEEFRAGLRKDGLGLPTSTPDLAVVVLPEEFQNDEMWREEIAGLTRPNQILLSGAYQRLQGRVQPGEISLAVAFKRSLRSDRLYQPLYEANVMQLLLEGKLGAPKVEFEVHTLAPEGTNAFVTYEAASLYGLAEGRSAVHRAIRELYVPPTAADLARRFFAFLNERMELVNG
notes: the structure legends name residues 1-24 (swapping domain), 25-30 (hinge loop) and 31-339; residues 1-339 are named for the structure; also called WT SgrAI; wild type SgrAI dimer
stoichiometry N [1]: 4
